The values below come from patent US12269897.

A value given as a limit tells only on which side of the number the result lay.

Assay [1] concerns the target hPCSK9(R215E), mmh-tagged (human, UniProt Q8NBP7 31-692). In words: SPR, mAb captured, 25C.
The target in assay [2] is T1, Chimeric protein #3 (mPro-mCat-hC-term-mmh) (mouse; human).
T1 chain: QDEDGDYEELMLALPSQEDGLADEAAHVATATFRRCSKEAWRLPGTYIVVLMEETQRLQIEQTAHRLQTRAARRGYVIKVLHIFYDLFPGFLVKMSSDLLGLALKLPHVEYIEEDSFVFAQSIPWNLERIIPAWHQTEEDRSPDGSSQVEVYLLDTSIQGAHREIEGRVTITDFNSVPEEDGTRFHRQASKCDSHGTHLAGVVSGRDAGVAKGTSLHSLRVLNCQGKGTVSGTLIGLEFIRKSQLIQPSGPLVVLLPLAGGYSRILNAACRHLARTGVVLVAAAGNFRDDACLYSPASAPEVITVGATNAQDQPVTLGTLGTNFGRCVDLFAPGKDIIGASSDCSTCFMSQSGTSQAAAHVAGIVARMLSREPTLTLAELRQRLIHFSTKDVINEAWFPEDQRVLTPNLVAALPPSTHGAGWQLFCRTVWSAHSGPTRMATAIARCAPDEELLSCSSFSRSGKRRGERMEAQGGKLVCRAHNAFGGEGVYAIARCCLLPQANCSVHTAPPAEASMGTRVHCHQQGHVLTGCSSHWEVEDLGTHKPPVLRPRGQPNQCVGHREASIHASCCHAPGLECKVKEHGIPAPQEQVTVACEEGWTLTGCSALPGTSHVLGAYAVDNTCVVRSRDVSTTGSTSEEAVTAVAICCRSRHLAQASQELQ
In words: ELISA, mAb coated, 1.2 nM protein. A general note: In an ELISA, binding on a coated surface is turned into a signal by an enzyme label.
Description: After 1 hr binding at RT, the plate was washed and bound test protein detected using HRP-conjugated anti-myc polyclonal antibody (++=OD>1.0; +=OD 0.4-1.0; −=OD<0.4).

B1: H1M300N, fully human version (antibody, V domains shown)
VH: EMQLVESGGGLVQPGGSLRLSCAASGFTFSSHWMKWVRQAPGKGLEWVANINQDGSEKYYVDSVKGRFTISRDNAKNSLFLQMNSLRAEDTAVYYCARDIVLMVYDMDYYYYGMDVWGQGTTVTVSS
VL: not shown
notes: Fully human mAb made in CHO cells
In the case of B1, the T1/2 in assay [1] is 1.28 h.

B2: H1M300 (antibody, V domains shown)
VH: B1 VH
VL: not shown
notes: Hybridoma-derived chimeric antibody (human variable, mouse constant)
On to B2, for which the OD in assay [2] is below 0.4 od.
